Data from article PMC10864410, “The pathogen-encoded signalling receptor Tir exploits host-like intrinsic disorder for infection” (Communications Biology, 2024).

B4: pC-Tir, C-Tir (residues 388-550 of EPEC O127:H6 Tir) phosphorylated by Fyn at four tyrosines (domain or fragment)
chain: RRNQPAEQTTTTTTHTVVQQQTGGNTPAQGGTDATRAEDASLNRRDSQGSVASTHWSDSSSEVVNPYAEVGGARNSLSAHQPEEHIYDEVAADPGYSVIQNFSGSGPVTGRLIGTPGQGIQSTYALLANSGGLRLGMGGLTSGGESAVSSVNAAPTPGPVRFV
modifications: phosphotyrosine at Y454, Y474, Y483 and Y511

What was measured:
[1] = target: the molecule itself; test: SEC-SAXS; synchrotron SEC-SAXS, B21 beamline, Shodex KW403-4F column; 100 mM Tris-HCl pH 8.0, 150 mM NaCl, 2 mM DTT, 1 mM EDTA; 50 uL of 10.0-25.0 mg/mL injected; dimeric single-peak region
[2] = target: B4; test: NMR; site pY511 (apparent local Kd)
[3] = target: B4; test: NMR; site pY483 (apparent local Kd)
[4] = target: T1, pC-Tir, C-Tir (residues 388-550 of EPEC O127:H6 Tir) phosphorylated by Fyn at four tyrosines (Enteropathogenic E. coli (EPEC) O127:H6, UniProt B7UM99 388-550, phosphotyrosine at Y454, Y474, Y483 and Y511); test: NMR titration; 15N-labelled pC-Tir (95 uM) titrated with 0.25, 0.5, 0.75, 1, 2, 4 and 6 equivalents of unlabelled C-SH2; [15N-1H]-HSQC peak intensities clustered by phosphorylation site and fitted globally to a 1:1 model; apparent KD for each site; conditions: both partners purified
T1 construct: Translocated intimin receptor Tir, EPEC O127:H6, residues 388-550; Same construct as m4, phosphorylated in vitro; 15N-labelled for the NMR titration; also called 4-fold phosphorylated state; phosphorylated C-Tir; not shown: Trx, N-terminal, cleaved; His6, N-terminal, cleaved; Strep-tag, C-terminal, kept
T1 sequence: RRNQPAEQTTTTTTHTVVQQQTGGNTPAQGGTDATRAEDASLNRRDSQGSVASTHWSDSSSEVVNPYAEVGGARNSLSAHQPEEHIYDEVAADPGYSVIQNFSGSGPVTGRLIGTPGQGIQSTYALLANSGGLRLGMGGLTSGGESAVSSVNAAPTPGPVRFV

[5] = target: B4; test: NMR; site pY474 (apparent local Kd)
[6] = target: T2, C-Tir, C-terminal cytosolic region of Tir of EPEC O127:H6, residues 388-550, unphosphorylated (Enteropathogenic E. coli (EPEC) O127:H6, UniProt B7UM99 388-550); test: NMR titration; unlabelled C-SH2 added to 15N-labelled unphosphorylated C-Tir (2.0 and 8.0 equivalents shown); [15N-1H]-HSQC peak intensities of A512-A515 fitted globally to a 1:1 model; apparent KD; conditions: both partners purified
T2 construct: Translocated intimin receptor Tir, EPEC O127:H6, residues 388-550; Trx-His6 tag cleaved on-column with HRV-3C protease; 15N-labelled for the NMR titration; also called unphosphorylated C-Tir; Tir C-terminus; source: E. coli BL21 Star (DE3) pLysS, lysed by boiling, purified (Strep-Tactin XT, Superdex 200); not shown: Trx, N-terminal, cleaved; His6, N-terminal, cleaved; Strep-tag, C-terminal, kept
T2 sequence: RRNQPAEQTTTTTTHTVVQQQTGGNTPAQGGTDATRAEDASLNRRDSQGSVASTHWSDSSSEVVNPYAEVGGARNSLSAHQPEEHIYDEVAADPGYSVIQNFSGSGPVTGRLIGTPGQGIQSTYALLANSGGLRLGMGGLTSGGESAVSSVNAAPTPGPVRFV

[7] = target: B4; test: NMR; site pY454 (apparent local Kd)
[8] = target: T3, C-terminal SH2 domain (C-SH2) of human phosphatase SHP-1, residues 101-217 (human, UniProt P29350 101-217); test: NMR; site pY511, apparent
T3 chain: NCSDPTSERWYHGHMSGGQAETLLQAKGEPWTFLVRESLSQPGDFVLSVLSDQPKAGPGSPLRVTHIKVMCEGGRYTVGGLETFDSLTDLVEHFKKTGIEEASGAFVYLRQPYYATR

[9] = target: T3, C-terminal SH2 domain (C-SH2) of human …; test: NMR; site pY474, apparent
[10] = target: T3, C-terminal SH2 domain (C-SH2) of human …; test: NMR; site pY454, apparent
[11] = target: T3, C-terminal SH2 domain (C-SH2) of human …; test: NMR; site pY483, apparent

B1: NS-Tir, N-terminal structured region of Tir (N-Tir 61-200) of EPEC O127:H6 (domain or fragment)
chain: VDSRDIPGLPTNPSRLAAATSETCLLGGFEVLHDKGPLDILNTQIGPSAFRVEVQADGTHAAIGEKNGLEVSVTLSPQEWSSLQSIDTEGKNRFVFTGGRGGSGHPMVTVASDIAEARTKILAKLDPDNHGGRQPKDVDT
notes: Translocated intimin receptor Tir, EPEC O127:H6, residues 61-200; Trx-His6 tag cleaved in vivo by co-expressed TEV protease; source: E. coli BL21 Star (DE3) pLysS, purified (Strep-Tactin XT, Superdex 200); not shown: Trx, N-terminal, cleaved; His6, N-terminal, cleaved; Strep-tag, C-terminal, kept
stoichiometry N [1]: 2

B2: N-Tir, N-terminal cytosolic region of the translocated intimin receptor (Tir) of EPEC O127:H6, residues 1-233 (domain or fragment)
chain: MPIGNLGNNVNGNHLIPPAPPLPSQTDGAARGGTGHLISSTGALGSRSLFSPLRNSMADSVDSRDIPGLPTNPSRLAAATSETCLLGGFEVLHDKGPLDILNTQIGPSAFRVEVQADGTHAAIGEKNGLEVSVTLSPQEWSSLQSIDTEGKNRFVFTGGRGGSGHPMVTVASDIAEARTKILAKLDPDNHGGRQPKDVDTRSVGVGSASGIDDGVVSETHTSTTNSSVRSDPK
notes: Translocated intimin receptor Tir, EPEC O127:H6, residues 1-233, from a synthetic E. coli codon-optimised gene of the full-length protein; Trx-His6 tag cleaved in vivo by co-expressed TEV protease; also called Tir's N-terminal tail; source: E. coli BL21 Star (DE3) pLysS, purified (Strep-Tactin XT, Superdex 200); not shown: Trx, N-terminal, cleaved; His6, N-terminal, cleaved; Strep-tag, …
stoichiometry N [1]: 2

B3: C-terminal SH2 domain (C-SH2) of human phosphatase SHP-1, residues 101-217 (domain or fragment, UniProt P29350 101-217, looked up)
chain: NCSDPTSERWYHGHMSGGQAETLLQAKGEPWTFLVRESLSQPGDFVLSVLSDQPKAGPGSPLRVTHIKVMCEGGRYTVGGLETFDSLTDLVEHFKKTGIEEASGAFVYLRQPYYATR
notes: Tyrosine-protein phosphatase SHP-1, human, C-terminal SH2 domain, residues 101-217; PCR-amplified from the vector pGEX SHP-1(NC)-SH2; Trx-His6 tag cleaved on-column with HRV-3C protease; unlabelled in the NMR titrations; also called SHP-1 C-SH2 domain; source: E. coli BL21 Star (DE3) pLysS, purified (Strep-Tactin XT, Superdex 200); not shown: Trx, N-terminal, cleaved; His6, N-terminal, cleaved
Kd [2]: 6.94 µM | Kd [3]: 9.25 µM | fold enhancement of binding at the Y511 site against unphosphorylated C-Tir [4]: ~10 fold | Kd [5]: 2.66 µM | Kd [6]: ~68.5 µM | Kd [7]: 86.1 µM

B4
Kd [8]: 6.94 µM | Kd [9]: 2.66 µM | Kd [10]: 86.1 µM | Kd [11]: 9.25 µM
